Stoichiometry N data for two substances are collected here from paper PMC12329521.

Common to all, as to experiment: SEC
For assay [1], the target named is PLP-bound Rv2531c (Mycobacterium tuberculosis).
In assay [2] the target is Rv2531c (apo) (Mycobacterium tuberculosis).
Assay [3] has the same target. This is another data set of the same source.

Read-outs that look alike come from different tables or passages of the source.

By stoichiometry N is commonly meant the number of molecules, sites or subunits per partner or assembly. Turning to PLP-bound Rv2531c (enzyme), the stoichiometry N in assay [1] came out at 2.
Take Rv2531c (apo) (enzyme): the stoichiometry N in assay [2] and in assay [3] was 4 throughout.
